Article PMC2854098 (Molecular Biology of the Cell, 2010)

B1: recombinant h3/acidic CaP-CBD (natural protein, rat, UniProt P37397 1-330, looked up)
chain: MTHFNKGPSYGLSAEVKNKIASKYDQQAEEDLRNWIEEVTGMGIGTNFQLGLKDGIILCELINKLQPGSVKKVNESSLNWPQLENIGNFIKAIQAYGMKPHDIFEANDLFENGNMTQVQTTLVALAGLAKTKGFHTTIDIGVKYAEKQTRRFDEGKLKAGQSVIGLQMGTNKCASQAGMTAYGTRRHLYDPKMQTDKPFDQTTISLQMGTNKGASQAGMSAPGTRRDIYDQKLTLQPVDNSTISLQMGTNKVASQKGMSVYGLGRQVYDPKYCAAPTEPVIHNGSQGTGTNGSEISDSDYQAEYPDEYHGEYPDEYPREYQYGDDQGIDY
B2: recombinant h1CaP-CBD (natural protein, ferret, UniProt Q9GK38 1-297, looked up)
chain: MSSAHFNRGPAYGLSAEVKNKLAQKYDHQREQELREWIEGVTGRRIGSNFMDGLKDGIILCEFINKLQPGSVKKVNESTQNWHQLENIGNFIKAITKYGVKPHDIFEANDLFENTNHTQVQSTLLALASMAKTKGNKVNVGVKYAEKQERKFEPEKLREGRNIIGLQMGTNKFASQQGMTAYGTRRHLYDPKLGTDQPLDQATISLQMGTNKGASQAGMTAPGTKRQIFEPGLGMEHCDTLNVSLQMGSNKGASQRGMTVYGLPRQVYDPKYCLTPEYPELGEPTHNHHAHNYYNSA

Biological target: recombinant, active murine ERK2 protein (murine, UniProt P63085 1-358)
Experiment: pull-down

Binder | binding result
B1 | binds
B2 | binds
